In article PMC11293989 (Molecular cancer therapeutics, 2024):

B1: NGM438, humanized IgG1 effector-less monoclonal antibody against LAIR1 (antibody, V domains shown)
VH: EVQLVESGGGLVQPGGSLRLSCAASGFTFNINAMNWVRQAPGKGLEWVARIRTKNYNYATFYADSVKDRFTISRDDSKNSLYLQMNSLKTEDTAVYYCVRDRAGFFAYWGQGTTVTVSS
VL: DIQMTQSPSSLSASVGDRVTITCLASQTIGTWLGWYQQKPGKAPKLLIYAATSLAEGVPSRFSGSGSGTDFTLTISSLQPEDFATYYCQQLYSTPLTFGGGTKVEIK

Assays:
Test in all cases: SPR
[1] = biological target: NGM438, humanized IgG1 effector-less monoclonal antibody against LAIR1
human LAIR2 = human LAIR2 (Homo sapiens, UniProt Q6ISS4)
Sequence of human LAIR2 (Q6ISS4 22-152): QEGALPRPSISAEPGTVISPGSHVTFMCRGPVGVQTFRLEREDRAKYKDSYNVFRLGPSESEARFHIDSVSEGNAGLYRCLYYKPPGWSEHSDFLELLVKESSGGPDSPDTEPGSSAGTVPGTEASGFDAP

[2] = biological target: recombinant human LAIR1-his (Homo sapiens, UniProt Q6GTX8)
Sequence of recombinant human LAIR1-his (Q6GTX8 22-287): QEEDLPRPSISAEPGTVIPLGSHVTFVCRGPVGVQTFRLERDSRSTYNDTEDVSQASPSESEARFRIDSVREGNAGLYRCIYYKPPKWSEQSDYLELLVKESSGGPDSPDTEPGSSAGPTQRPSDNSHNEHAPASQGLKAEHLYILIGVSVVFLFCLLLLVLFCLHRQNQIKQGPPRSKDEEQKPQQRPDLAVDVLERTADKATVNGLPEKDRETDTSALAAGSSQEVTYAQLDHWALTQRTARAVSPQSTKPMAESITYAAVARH

LAIR1 from mouse = LAIR1 from mouse (Mus musculus, UniProt Q8BG84)
Sequence of LAIR1 from mouse (Q8BG84 22-263): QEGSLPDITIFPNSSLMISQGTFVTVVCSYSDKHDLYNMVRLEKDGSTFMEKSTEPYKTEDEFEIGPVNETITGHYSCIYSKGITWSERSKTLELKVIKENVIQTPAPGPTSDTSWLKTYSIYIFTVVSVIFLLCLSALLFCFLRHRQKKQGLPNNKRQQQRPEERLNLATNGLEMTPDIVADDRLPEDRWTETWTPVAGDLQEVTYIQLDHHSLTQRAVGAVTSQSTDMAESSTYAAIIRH

LAIR1 from rat = LAIR1 from rat (Rattus norvegicus, UniProt P0C1X9)
Sequence of LAIR1 from rat (P0C1X9 22-263): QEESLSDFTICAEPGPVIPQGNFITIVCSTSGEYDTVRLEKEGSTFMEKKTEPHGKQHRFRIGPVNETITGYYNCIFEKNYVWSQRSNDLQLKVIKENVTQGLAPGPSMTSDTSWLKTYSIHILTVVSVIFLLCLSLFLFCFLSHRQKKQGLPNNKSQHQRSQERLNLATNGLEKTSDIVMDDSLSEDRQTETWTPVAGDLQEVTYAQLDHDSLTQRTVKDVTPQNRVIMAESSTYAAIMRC

Molecule	Kd [1] [nM]	binding result (human LAIR2)	Kd [2] [nM]	binding result (LAIR1 from mouse)	binding result (LAIR1 from rat)
recombinant cynomolgus monkey LAIR1-his (receptor)	4.28	–	–	–	–
B1	–	no binding	0.26 ± 0.03	no binding	no binding
